Tests used:
[1] = target: human CCR2 (CC-Chemokine Receptor 2) (human) (UniProt P41597); test: cell-based or functional assay
murine CCR2 (murine) = murine CCR2 (murine) (UniProt P51683); test: cell-based or functional assay
Sequence of murine CCR2 (murine) (P51683 whole entry): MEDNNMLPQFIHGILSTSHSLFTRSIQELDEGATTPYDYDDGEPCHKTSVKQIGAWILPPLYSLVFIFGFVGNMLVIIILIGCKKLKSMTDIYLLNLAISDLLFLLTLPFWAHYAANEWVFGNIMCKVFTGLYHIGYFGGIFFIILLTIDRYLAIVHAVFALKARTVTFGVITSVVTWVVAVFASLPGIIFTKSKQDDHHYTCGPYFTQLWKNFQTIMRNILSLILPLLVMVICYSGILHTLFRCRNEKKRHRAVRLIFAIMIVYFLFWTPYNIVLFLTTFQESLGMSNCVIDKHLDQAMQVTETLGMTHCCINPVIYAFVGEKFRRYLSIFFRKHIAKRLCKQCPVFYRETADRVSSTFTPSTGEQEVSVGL

Sequence of human CCR2 (CC-Chemokine Receptor 2) (human) (P41597 whole entry): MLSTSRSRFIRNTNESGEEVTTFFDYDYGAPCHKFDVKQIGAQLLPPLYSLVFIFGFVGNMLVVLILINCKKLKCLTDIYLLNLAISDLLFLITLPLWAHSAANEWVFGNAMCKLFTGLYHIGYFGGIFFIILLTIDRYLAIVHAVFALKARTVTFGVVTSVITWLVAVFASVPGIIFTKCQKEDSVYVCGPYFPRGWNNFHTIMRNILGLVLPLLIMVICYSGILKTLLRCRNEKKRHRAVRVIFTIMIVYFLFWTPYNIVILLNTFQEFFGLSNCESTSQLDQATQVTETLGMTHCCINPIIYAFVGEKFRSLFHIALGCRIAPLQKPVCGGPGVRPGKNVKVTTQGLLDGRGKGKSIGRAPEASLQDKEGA

Row | Substance | EC50 of MCP-1, MCP-1-induced calcium flux, THP-1 cells [1] [pM] | EC50 of MCP-1, MCP-1-induced calcium flux, primary human monocytes [1] [pM] | EC50 of MCP-1, MCP-1-induced chemotaxis, THP-1 cells [1] [pM] | EC50 of MCP-1, MCP-1-induced chemotaxis, primary human monocytes [1] [pM] | EC50 of mMCP-1, mMCP-1-induced chemotaxis, WEHI 274.1 cells (murine CCR2 (murine)) [pM]
1 | human MCP-1 (PROSPEC # CHM-271) (from UniProt P13500 24-99) (ligand) | 3300 | 3790 | 800 | 389 | 
2 | mMCP-1 (mouse MCP-1) (from UniProt P10148 24-148) (ligand) |  |  |  |  | 120

Reference: patent publication US20130344070A1
